# B1: WT transketolase (WT TK) (Escherichia coli K-12) (protein)
# chain: MSSRKELANAIRALSMDAVQKAKSGHPGAPMGMADIAEVLWRDFLKHNPQNPSWADRDRFVLSNGHGSMLIYSLLHLTGYDLPMEELKNFRQLHSKTPGHPEVGYTAGVETTTGPLGQGIANAVGMAIAEKTLAAQFNRPGHDIVDHYTYAFMGDGCMMEGISHEVCSLAGTLKLGKLIAFYDDNGISIDGHVEGWFTDDTAMRFEAYGWHVIRDIDGHDAASIKRAVEEARAVTDKPSLLMCKTIIGFGSPNKAGTHDSHGAPLGDAEIALTREQLGWKYAPFEIPSEIYAQWDAKEAGQAKESAWNEKFAAYAKAYPQEAAEFTRRMKGEMPSDFDAKAKEFIAKLQANPAKIASRKASQNAIEAFGPLLPEFLGGSADLAPSNLTLWSGSKAINEDAAGNYIHYGVREFGMTAIANGISLHGGFLPYTSTFLMFVEYARNAVRMAALMKQRQVMVYTHDSIGLGEDGPTHQPVEQVASLRVTPNMSTWRPCDQVESAVAWKYGVERQDGPTALILSRQNLAQQERTEEQLANIARGGYVLKDCAGQPELIFIATGSEVELAVAAYEKLTAEGVKARVVSMPSTDAFDKQDAAYRESVLPKAVTARVAVEAGIADYWYKYVGLNGAIVGMTTFGESAPAELLFEEFGFTVDNVVAKAKELL
# notes: full length, N-terminal His6 tag (plasmid pQR791), Ni-NTA purified, tag cleavage not mentioned; homodimer of 73-74 kDa monomers; WT expressed in E. coli XL10-Gold, variants in E. coli C321.dA.exp
# Substrate: O=CCO
# Experiment: HPLC of erythrulose formation, initial velocities, Michaelis-Menten fit
# Assay type: biochemical, Escherichia coli
# Conditions: 50 mM HPA, 1.36 mM ThDP, 5.1 mM MgCl2, 33 mM Tris.HCl, pH 7.0, assay 21 °C, pre-incubated 15 min at 21 °C, standard error in parentheses
# Excerpt: HPLC of erythrulose formation, initial velocities, Michaelis-Menten fit on WT transketolase (WT TK)
protein,measurement,value
B1,Km,22 (3) mM
same,Vmax,4600 µM/min
same,kcat,53.3 s⁻¹
same,kcat/Km,2500 M⁻¹ s⁻¹
